The text below walks through data of article PMC9768791 (2022).

What all share (assay): activation reporter or marker
Assay [1] addresses T1, RASA3p.A654V peptide on HLA-A*02:01 (human).
T1 peptide: FQVIQPERV

The target in assay [2] is T2, MED12Lp.T462K peptide on HLA-C*07:02 (human).
T2 peptide: SRVLHKLEV

Assay [3] deals with T3, PRCCp.V145L peptide on HLA-C*07:01 (human).
T3 peptide: KRKEPLKI

Assay [4] concerns the target T4, WDFY3p.L512H peptide on HLA-A*11:01 (human).
T4 peptide: VMVNHLHKY

For assay [5], the target named is T5, BRPF1p.L634F peptide on HLA-A*24:02 (human).
T5 peptide: EMQLTPFFI

For assay [6], the target named is T6, ACEp.V535G peptide on HLA-B*57:01 (human).
T6 peptide: VSFGLQFQF

The target of assay [7] is T7, PAPSS1p.Q144H peptide on HLA-C*07:02 (human).
T7 peptide: ARHIHEGASL

The target of assay [8] is T8, KBTBD3p.T293A peptide on HLA-B*35:01 (human).
T8 peptide: RPSTAEKYIF

In assay [9] the target is T9, SDK1p.S1290L peptide on HLA-A*02:01 (human).
T9 peptide: SLTQILLTWT

For assay [10], the target named is T10, FCGRTp.A241T peptide on HLA-C*06:02 (human).
T10 peptide: LRFLRNGLT

In assay [11] the target is T11, CDADC1p.R148Q peptide on HLA-A*24:02 (human).
T11 peptide: AGVNQISYW

Assay [12] deals with T12, ETNK1p.Q233L peptide on HLA-C*07:01 (human).
T12 peptide: FRLIARLL

Assay [13] has as its target T13, USP34p.S2706F peptide on HLA-C*07:02 (human).
T13 peptide: FRSTRFLHI

Assay [14] concerns the target T14, MAN2A2p.R877W peptide on HLA-C*04:01 (human).
T14 peptide: IWDYVNKELA

B1: TCR1312 (TCR, V domains shown)
Valpha: QKEVEQNSGPLSVPEGAIASLNCTYSDRGSQSFFWYRQYSGKSPELIMFIYSNGDKEDGRFTAQLNKASQYVSLLIRDSQPSDSATYLCAVNRAGGSYIPTFGRGTSLIVHP
Vbeta: DAGVIQSPRHEVTEMGQEVTLRCKPISGHDYLFWYRQTMMRGLELLIYFNNNVPIDDSGMPEDRFSAKMPNASFSTLKIQPSEPRDSAVYFCASSQGQGVLGMKKLFFGSGTQLSVL
In the case of B1, the binding result in assay [1] was “recognises”.

B2: TCR915 (TCR, V domains shown)
Valpha: AQKVTQAQTEISVVEKEDVTLDCVYETRDTTYYLFWYKQPPSGELVFLIRRNSFDEQNEISGRYSWNFQKSTSSFNFTITASQVVDSAVYFCALSDHNTDKLIFGTGTRLQVFP
Vbeta: NAGVTQTPKFRILKIGQSMTLQCTQDMNHNYMYWYRQDPGMGLKLIYYSVGAGITDKGEVPNGYNVSRSTTEDFPLRLELAAPSQTSVYFCASISDSYNEQFFGPGTRLTVL
Consider B2, for which the binding result in [2] is reported as “recognises”.

B3: TCR775 (TCR, V domains shown)
Valpha: GQNIDQPTEMTATEGAIVQINCTYQTSGFNGLFWYQQHAGEAPTFLSYNVLDGLEEKGRFSSFLSRSKGYSYLLLKELQMKDSASYLCAAHSGGYQKVTFGTGTKLQVIP
Vbeta: EPEVTQTPSHQVTQMGQEVILRCVPISNHLYFYWYRQILGQKVEFLVSFYNNEISEKSEIFDDQFSVERPDGSNFTLKIRSTKLEDSAMYFCASSEDEQEYSYEQYFGPGTRLTVT
For the molecule B3, the binding result in assay [3] is on record as “recognises”.

B4: TCR720 (TCR, V domains shown)
Valpha: LAKTTQPISMDSYEGQEVNITCSHNNIATNDYITWYQQFPSQGPRFIIQGYKTKVTNEVASLFIPADRKSSTLSLPRVSLSDTAVYYCLVIEAGNNRKLIWGLGTSLAVNP
Vbeta: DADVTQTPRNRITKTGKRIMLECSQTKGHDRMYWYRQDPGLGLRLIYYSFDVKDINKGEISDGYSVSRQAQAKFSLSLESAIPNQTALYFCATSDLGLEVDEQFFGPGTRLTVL
For the molecule B4, the binding result in assay [4] is “recognises”.

B5: TCR955 (TCR, V domains shown)
Valpha: AQTVTQSQPEMSVQEAETVTLSCTYDTSESDYYLFWYKQPPSRQMILVIRQEAYKQQNATENRFSVNFQKAAKSFSLKISDSQLGDAAMYFCAYRRRNSGYALNFGKGTSLLVTP
Vbeta: DAGVTQSPTHLIKTRGQQVTLRCSPKSGHDTVSWYQQALGQGPQFIFQYYEEEERQRGNFPDRFSGHQFPNYSSELNVNALLLGDSALYLCASSLRVWSSYEQYFGPGTRLTVT
As for B5, in assay [5], the binding result is listed as “recognises”.

B6: TCR901 (TCR, V domains shown)
Valpha: QKEVEQDPGPLSVPEGAIVSLNCTYSNSAFQYFMWYRQYSRKGPELLMYTYSSGNKEDGRFTAQVDKSSKYISLFIRDSQPSDSATYLCAMTRGGGGNKLTFGTGTQLKVEL
Vbeta: NAGVTQTPKFRVLKTGQSMTLLCAQDMNHEYMYWYRQDPGMGLRLIHYSVGEGTTAKGEVPDGYNVSRLKKQNFLLGLESAAPSQTSVYFCASSYGGPEQFFGPGTRLTVL
Consider B6, for which the binding result in assay [6] is recorded as “recognises”.

B7: TCR952 (TCR, V domains shown)
Valpha: SQQGEEDPQALSIQEGENATMNCSYKTSINNLQWYRQNSGRGLVHLILIRSNEREKHSGRLRVTLDTSKKSSSLLITASRAADTASYFCATDEVGDMRFGAGTRLTVKP
Vbeta: EPEVTQTPSHQVTQMGQEVILRCVPISNHLYFYWYRQILGQKVEFLVSFYNNEISEKSEIFDDQFSVERPDGSNFTLKIRSTKLEDSAMYFCAISGSLYNEQFFGPGTRLTVL
For the molecule B7, the binding result in assay [7] is “recognises”.

B8: TCR1364 (TCR, V domains shown)
Valpha: GQNIDQPTEMTATEGAIVQINCTYQTSGFNGLFWYQQHAGEAPTFLSYNVLDGLEEKGRFSSFLSRSKGYSYLLLKELQMKDSASYLCAVKGDYKLSFGAGTTVTVRA
Vbeta: DTGVSQNPRHKITKRGQNVTFRCDPISEHNRLYWYRQTLGQGPEFLTYFQNEAQLEKSRLLSDRFSAERPKGSFSTLEIQRTEQGDSAMYLCASSDRSYNEQFFGPGTRLTVL
Consider B8, for which the binding result in [8] was “recognises”.

B9: TCR1036 (TCR, V domains shown)
Valpha: RKEVEQDPGPFNVPEGATVAFNCTYSNSASQSFFWYRQDCRKEPKLLMSVYSSGNEDGRFTAQLNRASQYISLLIRDSKLSDSATYLCVVNMYNQGGKLIFGQGTELSVKP
Vbeta: NAGVTQTPKFQVLKTGQSMTLQCAQDMNHEYMSWYRQDPGMGLRLIHYSVGAGITDQGEVPNGYNVSRSTTEDFPLRLLSAAPSQTSVYFCASSYSGPNYEQYFGPGTRLTVT
On to B9, for which the binding result in [9] was “recognises”.

B10: TCR1059 (TCR, V domains shown)
Valpha: SQQGEEDPQALSIQEGENATMNCSYKTSINNLQWYRQNSGRGLVHLILIRSNEREKHSGRLRVTLDTSKKSSSLLITASRAADTASYFCATDEGNFVFGPGTRLSVLP
Vbeta: NAGVTQTPKFQVLKTGQSMTLQCAQDMNHEYMSWYRQDPGMGLRLIHYSVGAGITDQGEVPNGYNVSRSTTEDFPLRLLSAAPSQTSVYFCASSPGQRETQYFGPGTRLLVL
Take B10: the binding result in assay [10] is “recognises”.

B11: TCR1057 (TCR, V domains shown)
Valpha: GENVEQHPSTLSVQEGDSAVIKCTYSDSASNYFPWYKQELGKRPQLIIDIRSNVGEKKDQRIAVTLNKTAKHFSLHITETQPEDSAVYFCAASRGPAGGTSYGKLTFGQGTILTVHP
Vbeta: DTEVTQTPKHLVMGMTNKKSLKCEQHMGHRAMYWYKQKAKKPPELMFVYSYEKLSINESVPSRFSPECPNSSLLNLHLHALQPEDSALYLCASSQDAWWLSQPQHFGDGTRLSIL
Consider B11, for which the binding result in assay [11] was “recognises”.

B12: TCR1285 (TCR, V domains shown)
Valpha: DAKTTQPPSMDCAEGRAANLPCNHSTISGNEYVYWYRQIHSQGPQYIIHGLKNNETNEMASLIITEDRKSSTLILPHATLRDTAVYYCIVRLAPYSGNTPLVFGKGTRLSVIA
Vbeta: DAGVTQSPTHLIKTRGQQVTLRCSPKSGHDTVSWYQQALGQGPQFIFQYYEEEERQRGNFPDRFSGHQFPNYSSELNVNALLLGDSALYLCASISGFMGLMNTEAFFGQGTRLTVV
Consider B12, for which the binding result in [12] is on record as “recognises”.

B13: TCR903 (TCR, V domains shown)
Valpha: AQKVTQAQTEISVVEKEDVTLDCVYETRDTTYYLFWYKQPPSGELVFLIRRNSFDEQNEISGRYSWNFQKSTSSFNFTITASQVVDSAVYFCALSEETDRGSTLGRLYFGRGTQLTVWP
Vbeta: DTAVSQTPKYLVTQMGNDKSIKCEQNLGHDTMYWYKQDSKKFLKIMFSYNNKELIINETVPNRFSPKSPDKAHLNLHINSLELGDSAVYFCASSQDGGFEQFFGPGTRLTVL
Turning to B13, the binding result in assay [13] is “recognises”.

B14: TCR721 (TCR, V domains shown)
Valpha: AQKVTQAQTEISVVEKEDVTLDCVYETRDTTYYLFWYKQPPSGELVFLIRRNSFDEQNEISGRYSWNFQKSTSSFNFTITASQVVDSAVYFCALSEATGFGNEKLTFGTGTRLTIIP
Vbeta: DAGITQSPRHKVTETGTPVTLRCHQTENHRYMYWYRQDPGHGLRLIHYSYGVKDTDKGEVSDGYSVSRSKTEDFLLTLESATSSQTSVYFCAISDPRDSYEQYFGPGTRLTVT
For B14, the binding result in assay [14] was “recognises”.
